Test results: PMC11335197

B1: AT1R wildtype C-terminally fused to YPet [not stated] / AT1R wildtype coupled to mTurquoise2 [not stated] (parent)
chain 1: MILNSSTEDGIKRIQDDCPKAGRHNYIFVMIPTLYSIIFVVGIFGNSLVVIVIYFYMKLKTVASVFLLNLALADLCFLLTLPLWAVYTAMEYRWPFGNYLCKIASASVSFNLYASVFLLTCLSIDRYLAIVHPMKSRLRRTMLVAKVTCIIIWLLAGLASLPAIIHRNVFFIENTNITVCAFHYESQNSTLPIGLGLTKNILGFLFPFLIILTSYTLIWKALKKAYEIQKNKPRNDDIFKIIMAIVLFFFFSWIPHQIFTFLDVLIQLGIIRDCRIADIVDTAMPITICIAYFNNCLNPLFYGFLGKKFKRYFLQLLKYIPPKAKSHSNLSTKMSTLSYRPSDNVSSSTKKPAPCFEVE
chain 2: B1 chain 1

Key:
[1] = variants of: B1; assay: FLIM (FRET) in living HEK293 cells; conditions: with AT1R wildtype coupled to mTurquoise2, 2-exponential fitting, acceptor AT1R-YPet, read off a plot
[2] = variants of: B1; assay: intensity-based FRET microscopy in living HEK293 cells; conditions: with AT1R wildtype coupled to mTurquoise2; donor AT1R-mTurquoise2 (wildtype), acceptor AT1R-YPet; read off a plot

donor fluorescence lifetime [1] [ns]	response [2] [%]	Variant
3.5	35	chain 1 MILNSSTEDGIKRIQDDCPKAGRHNYIFVMIPTLYSIIFVVGIFGNSLVVIVIYFYMKLKTVASVFLLNLALADLCFLLTLPLWAVYTAMEYRWPFGNYLCKIASASVSFNLYASVFLLTCLSIDRYLAIVHPMKSRLRRTMLVAKVTCIIIWLLAGLASLPAIIHRNVFFIENTNITVCAFHYESQNATLPAGLGATKNAAGFAAPFLIILTSYTLIWKALKKAYEIQKNKPRNDDIFKIIMAIVLFFFFSWIPHQIFTFLDVLIQLGIIRDCRIADIVDTAMPITICIAYFNNCLNPLFYGFLGKKFKRYFLQLLKYIPPKAKSHSNLSTKMSTLSYRPSDNVSSSTKKPAPCFEVE [chain 1 S189A I193A L197A I201A L202A L205A F206A]
3	67	chain 1 MILNSSTEDGIKRIQDDCPKAGRHNYIFVMIPTLYSIIFVVGIFGNSLVVIVIAAYMKLKTVASVFLLNLALADLCFLLTLPLWAVYTAMEYRWPAGNAACKIASASVSFNLYASVFLLTCLSIDRYLAIVHPMKSRLRRTMLVAKVTCIIIWLLAGLASLPAIIHRNVFFIENTNITVCAFHYESQNSTLPIGLGLTKNILGFLFPFLIILTSYTLIWKALKKAYEIQKNKPRNDDIFKIIMAIVLFFFFSWIPHQIFTFLDVLIQLGIIRDCRIADIVDTAMPITICIAYFNNCLNPLFYGFLGKKFKRYFLQLLKYIPPKAKSHSNLSTKMSTLSYRPSDNVSSSTKKPAPCFEVE [chain 1 Y54A F55A F96A Y99A L100A]
